Test results: the supplement of paper PMC10126150
± gives the standard deviation of the averaged measurements.

Tested on: ATP
Assay: switch fluorescence ratio, 500 uM ATP over buffer (Cy3 cluster intensity, sum of 5 cycles each) (fold (ratio)); higher = stronger signal-on switching upon ATP binding; sequences stand for … in TCGTCGGCAGCGTCAGATGTGTATAAGAGACAGTTTTTTTTTTTTTTTTTTTTTTTTT…TC
Settings: aptamer strand: ATP DNA aptamer (quencher-CACCTGGGGGAGTATTGCGGAGGAAGG + anchor), 100 nM annealed; ATP concentration: 500 uM
Summary of the method: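 Five buffer/ATP imaging cycles were run on Cy3-labelled switching-strand clusters on a modified Illumina MiSeq flow-cell, with NaOH stripping and re-annealing between cycles. In each cycle, clusters annealed to 100 nM quencher-labelled ATP aptamer were imaged in selection buffer, then after 15 min with 500 uM ATP at 22 °C. Per cluster, the fluorescence ratio is summed target-cycle over summed buffer-cycle Cy3 intensity, averaged per switch-domain sequence. Only clusters within 100-1000 RFU were kept.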
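Further: ATP exposure 15 min at 22 °C before imaging.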

CTTTGTGCGT
switch fluorescence ratio: 0.99 ± 0.029

CTTTTACTCG
switch fluorescence ratio: 1.01 ± 0.073

CTTTTAGGA
switch fluorescence ratio: 0.995 ± 0.021

CTTTTATCAC
switch fluorescence ratio: 1.25 ± 0.43

CTTTTATGGG
switch fluorescence ratio: 0.993 ± 0.023

CTTTTCTTCA
switch fluorescence ratio: 1.01 ± 0.046

CTTTTGGGGG
switch fluorescence ratio: 0.991 ± 0.028

CTTTTGTGTC
switch fluorescence ratio: 0.9866 ± 0.0071

CTTTTTAGTC
switch fluorescence ratio: 1.03 ± 0.013

CTTTTTATGG
switch fluorescence ratio: 1.03 ± 0.033

CTTTTTGAGG
switch fluorescence ratio: 0.983 ± 0.048

CTTTTTGGTA
switch fluorescence ratio: 0.9975 ± 0.0084

CTTTTTTTTC
switch fluorescence ratio: 1.03 ± 0.078

GAAAAAAAGA
switch fluorescence ratio: 1 ± 0.021

GAAAAAAATT
switch fluorescence ratio: 1.02 ± 0.024

GAAAAAGACT
switch fluorescence ratio: 1.04 ± 0.089

GAAAAATCGA
switch fluorescence ratio: 0.9882 ± 0.0056

GAAAAATTTC
switch fluorescence ratio: 0.99 ± 0.028

GAAAAGGTCA
switch fluorescence ratio: 1.04 ± 0.019

GAAAATAGTG
switch fluorescence ratio: 1.01 ± 0.029

GAAACTATTT
switch fluorescence ratio: 1.03 ± 0.05

GAAACTGGGG
switch fluorescence ratio: 1.02 ± 0.031

GAAAGAAACT
switch fluorescence ratio: 1.63 ± 0.98

GAAAGAAATG
switch fluorescence ratio: 0.9994 ± 0.003

GAAAGGGTTT
switch fluorescence ratio: 1.01 ± 0.048

GAAAGTGAGA
switch fluorescence ratio: 1.01 ± 0.056

GAAAGTGGTG
switch fluorescence ratio: 0.9921 ± 0.0055

GAAATAAAAG
switch fluorescence ratio: 0.9796 ± 0.0064

GAAATAAATA
switch fluorescence ratio: 0.9835 ± 0.0081

GAAATAATGG
switch fluorescence ratio: 1.03 ± 0.041

GAAATAGGG
switch fluorescence ratio: 0.983 ± 0.011

GAAATATGTG
switch fluorescence ratio: 0.9885 ± 0.0022

GAAATCATTA
switch fluorescence ratio: 1.016 ± 0.01

GAAATCCGAA
switch fluorescence ratio: 1.08 ± 0.058

GAAATCTTTT
switch fluorescence ratio: 1.07 ± 0.17

GAAATGAGAT
switch fluorescence ratio: 0.975 ± 0.01

GAAATGGGGT
switch fluorescence ratio: 0.977 ± 0.037

GAAATGGTAT
switch fluorescence ratio: 1 ± 0.011

GAAATTCGAG
switch fluorescence ratio: 1.01 ± 0.033

GAAATTTATA
switch fluorescence ratio: 1.05 ± 0.04

GAACAAGGAG
switch fluorescence ratio: 1.03 ± 0.077

GAACAAGGTG
switch fluorescence ratio: 1.14 ± 0.22

GAACATGGGC
switch fluorescence ratio: 1.012 ± 0.0084

GAACATTGGT
switch fluorescence ratio: 0.998 ± 0.042

GAACCGATGT
switch fluorescence ratio: 1.009 ± 0.0089

GAACCTTGAC
switch fluorescence ratio: 1.61 ± 0.14

GAACGAGAGG
switch fluorescence ratio: 1.01 ± 0.012

GAACGCGATT
switch fluorescence ratio: 3.92 ± 1.3

GAACGGAAGG
switch fluorescence ratio: 1.014 ± 0.0043

GAACGGGAAT
switch fluorescence ratio: 1.022 ± 0.00076

GAACGGGGCG
switch fluorescence ratio: 1.01 ± 0.099

GAACGGGGGG
switch fluorescence ratio: 0.9624 ± 0.0053

GAACGGTATT
switch fluorescence ratio: 1.06 ± 0.065

GAACGTCGGA
switch fluorescence ratio: 1.028 ± 0.0027

GAACGTGGCA
switch fluorescence ratio: 0.9956 ± 0.0095

GAACTAGGTT
switch fluorescence ratio: 0.9847 ± 0.0035

GAACTATTTC
switch fluorescence ratio: 1.036 ± 0.0019

GAACTCGATG
switch fluorescence ratio: 1.018 ± 0.0091

GAACTTAGAG
switch fluorescence ratio: 1.02 ± 0.03

GAACTTGATG
switch fluorescence ratio: 0.997 ± 0.036

GAAGAAAGGT
switch fluorescence ratio: 0.966 ± 0.064

GAAGAAGGTG
switch fluorescence ratio: 1.43 ± 0.018

GAAGAAGTAA
switch fluorescence ratio: 1.03 ± 0.013

GAAGAATTAA
switch fluorescence ratio: 1.0278 ± 0.00043

GAAGAGGGGT
switch fluorescence ratio: 1.01 ± 0.014

GAAGAGGGTG
switch fluorescence ratio: 1.03 ± 0.022

GAAGATGCGG
switch fluorescence ratio: 1.0002 ± 0.00028

GAAGATTATA
switch fluorescence ratio: 0.9865 ± 0.0044

GAAGCCGGAA
switch fluorescence ratio: 1.04 ± 0.021

GAAGCGGGGC
switch fluorescence ratio: 1.36 ± 0.064

GAAGCGGGGG
switch fluorescence ratio: 1.05 ± 0.02

GAAGCTGCTT
switch fluorescence ratio: 0.9908 ± 0.0073

GAAGCTTTAG
switch fluorescence ratio: 1.06 ± 0.019

GAAGGAGCAG
switch fluorescence ratio: 0.944 ± 0.029

GAAGGAGGGG
switch fluorescence ratio: 1.06 ± 0.036

GAAGGATTGT
switch fluorescence ratio: 1.02 ± 0.059

GAAGGCGGAT
switch fluorescence ratio: 1.01 ± 0.018

GAAGGCGGGA
switch fluorescence ratio: 1.03 ± 0.097

GAAGGGAGCG
switch fluorescence ratio: 0.984 ± 0.045

GAAGGGAGGT
switch fluorescence ratio: 0.987 ± 0.012

GAAGGGGCGA
switch fluorescence ratio: 0.972 ± 0.018

GAAGGGGGG
switch fluorescence ratio: 1.001 ± 0.0094

GAAGGGGGGT
switch fluorescence ratio: 0.997 ± 0.029

GAAGGGGGTT
switch fluorescence ratio: 0.973 ± 0.036

GAAGGGGTTA
switch fluorescence ratio: 1.03 ± 0.087

GAAGGGTACG
switch fluorescence ratio: 1.07 ± 0.091

GAAGGGTTAC
switch fluorescence ratio: 1.15 ± 0.15

GAAGGGTTGG
switch fluorescence ratio: 0.999 ± 0.014

GAAGGGTTTG
switch fluorescence ratio: 0.9968 ± 0.0053

GAAGGTATTT
switch fluorescence ratio: 0.9517 ± 0.0056

GAAGGTCAGT
switch fluorescence ratio: 0.971 ± 0.051

GAAGGTGGTG
switch fluorescence ratio: 0.961 ± 0.032

GAAGGTTCGT
switch fluorescence ratio: 1 ± 0.034

GAAGTAGGCG
switch fluorescence ratio: 1.03 ± 0.028

GAAGTAGGTG
switch fluorescence ratio: 1.02 ± 0.012

GAAGTAGTTT
switch fluorescence ratio: 0.98 ± 0.089

GAAGTATGCA
switch fluorescence ratio: 1.04 ± 0.031

GAAGTATGGG
switch fluorescence ratio: 0.956 ± 0.024

GAAGTATGTG
switch fluorescence ratio: 1.006 ± 0.0092

GAAGTCCTGT
switch fluorescence ratio: 0.998 ± 0.021

GAAGTGAGCA
switch fluorescence ratio: 1.01 ± 0.044

GAAGTGCGGT
switch fluorescence ratio: 0.98474 ± 0.00042

GAAGTGGTTT
switch fluorescence ratio: 0.997 ± 0.025

GAAGTGTCGG
switch fluorescence ratio: 1.005 ± 0.0057

GAAGTTAGGT
switch fluorescence ratio: 0.9981 ± 0.0087

GAAGTTATTG
switch fluorescence ratio: 0.9898 ± 0.0022

GAAGTTCGAG
switch fluorescence ratio: 0.998 ± 0.016

GAAGTTGGGT
switch fluorescence ratio: 1.01 ± 0.029

GAATAAAATG
switch fluorescence ratio: 1.04 ± 0.013

GAATACCTTT
switch fluorescence ratio: 1.02 ± 0.013

GAATAGGGTG
switch fluorescence ratio: 1.08 ± 0.039

GAATATAGTG
switch fluorescence ratio: 1.02 ± 0.011

GAATATAGTT
switch fluorescence ratio: 0.9947 ± 0.0078

GAATATGTGG
switch fluorescence ratio: 1 ± 0.013

GAATATTTTG
switch fluorescence ratio: 0.994 ± 0.015

GAATCAATGG
switch fluorescence ratio: 1.03 ± 0.02

GAATCATGTT
switch fluorescence ratio: 0.9915 ± 0.0065

GAATCCAGTT
switch fluorescence ratio: 0.989 ± 0.02

GAATCCGTTC
switch fluorescence ratio: 1.07 ± 0.026

GAATCGATAC
switch fluorescence ratio: 1.76 ± 0.084

GAATCGGGGT
switch fluorescence ratio: 0.992 ± 0.045

GAATCTCGGA
switch fluorescence ratio: 1.018 ± 0.0018

GAATGAAGAA
switch fluorescence ratio: 0.9989 ± 0.0081

GAATGAGATC
switch fluorescence ratio: 1.01 ± 0.11

GAATGAGATT
switch fluorescence ratio: 1.001 ± 0.0043

GAATGGAGGT
switch fluorescence ratio: 1.01 ± 0.021

GAATGGCTAG
switch fluorescence ratio: 1.0109 ± 0.00049

GAATGGCTGG
switch fluorescence ratio: 0.962 ± 0.0099

GAATGGGAGT
switch fluorescence ratio: 0.9969 ± 0.0051

GAATGGGTAT
switch fluorescence ratio: 0.979 ± 0.026

GAATGGTAGT
switch fluorescence ratio: 1.025 ± 0.0078

GAATGTATCG
switch fluorescence ratio: 0.981 ± 0.021

GAATGTATGA
switch fluorescence ratio: 0.99 ± 0.023

GAATGTTCAG
switch fluorescence ratio: 1.02 ± 0.024

GAATGTTCTG
switch fluorescence ratio: 0.996 ± 0.052

GAATTAGAGA
switch fluorescence ratio: 1.03 ± 0.033

GAATTAGGGA
switch fluorescence ratio: 1.01 ± 0.018

GAATTATCAG
switch fluorescence ratio: 0.968 ± 0.045

GAATTATGTT
switch fluorescence ratio: 1.01 ± 0.004

GAATTGGGGG
switch fluorescence ratio: 1.01 ± 0.03

GAATTTCGGG
switch fluorescence ratio: 0.996 ± 0.013

GAATTTGAGC
switch fluorescence ratio: 1.03 ± 0.02

GAATTTGGAA
switch fluorescence ratio: 1.01 ± 0.022

GAATTTGTGA
switch fluorescence ratio: 0.98 ± 0.035

GAATTTGTGG
switch fluorescence ratio: 0.995 ± 0.037

GAATTTTGG
switch fluorescence ratio: 0.9824 ± 0.0032

GAATTTTTTC
switch fluorescence ratio: 1.02 ± 0.016

GACAAATCTG
switch fluorescence ratio: 1.04 ± 0.043

GACAACGGAT
switch fluorescence ratio: 1.02 ± 0.03

GACAACTTTT
switch fluorescence ratio: 0.991 ± 0.016

GACAATTCTT
switch fluorescence ratio: 1.006 ± 0.0096

GACACAGGGG
switch fluorescence ratio: 1.06 ± 0.047

GACACATCAA
switch fluorescence ratio: 1.048 ± 0.008

GACACCAATC
switch fluorescence ratio: 1.36 ± 0.052

GACACGGGGT
switch fluorescence ratio: 1 ± 0.071

GACACGTGGG
switch fluorescence ratio: 1.02 ± 0.055

GACAGAGCCA
switch fluorescence ratio: 1.1036 ± 0.0011
